# T1: Spirochaeta thermophila YeeE (Spirochaeta thermophila, UniProt G0GAP6 1-328)
# T1 sequence (looked up): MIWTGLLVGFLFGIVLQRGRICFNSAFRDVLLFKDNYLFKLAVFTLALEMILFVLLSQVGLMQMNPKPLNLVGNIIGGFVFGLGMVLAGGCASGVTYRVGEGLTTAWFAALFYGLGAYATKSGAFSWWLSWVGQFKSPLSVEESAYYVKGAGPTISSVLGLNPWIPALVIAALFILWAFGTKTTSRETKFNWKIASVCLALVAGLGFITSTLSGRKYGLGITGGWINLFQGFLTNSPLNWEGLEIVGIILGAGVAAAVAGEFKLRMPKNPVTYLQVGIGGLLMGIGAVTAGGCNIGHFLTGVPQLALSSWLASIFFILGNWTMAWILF
# Key:
# [1] = target: the molecule itself; experiment: SEC
# [2] = target: T1, Spirochaeta thermophila YeeE; experiment: BLI
binder,measurement,setting,value
"Spirochaeta thermophila YeeD, His-tagged, wild type (natural protein, UniProt G0GAP7 1-80, looked up) MANYQVSKEIDVRGEVCPIPDVEAKRAVQSANDGEIILVRIDYPLSKERIPETVKKLGSEVLEIEEAAPGEWNIYIKVKK",stoichiometry N,[1],2
same,Kd,[2],1.6 ± 0.2 µM

# — paper doi:10.1101/2023.07.28.550924 (bioRxiv, 2023)
